Measured values: paper PMC10843684 (Molecular cell, 2023)

Biological target: T1, Gid2 (RING subunit of the GID E3 catalytic module) (S. cerevisiae, UniProt Q12508 1-421)
T1 sequence: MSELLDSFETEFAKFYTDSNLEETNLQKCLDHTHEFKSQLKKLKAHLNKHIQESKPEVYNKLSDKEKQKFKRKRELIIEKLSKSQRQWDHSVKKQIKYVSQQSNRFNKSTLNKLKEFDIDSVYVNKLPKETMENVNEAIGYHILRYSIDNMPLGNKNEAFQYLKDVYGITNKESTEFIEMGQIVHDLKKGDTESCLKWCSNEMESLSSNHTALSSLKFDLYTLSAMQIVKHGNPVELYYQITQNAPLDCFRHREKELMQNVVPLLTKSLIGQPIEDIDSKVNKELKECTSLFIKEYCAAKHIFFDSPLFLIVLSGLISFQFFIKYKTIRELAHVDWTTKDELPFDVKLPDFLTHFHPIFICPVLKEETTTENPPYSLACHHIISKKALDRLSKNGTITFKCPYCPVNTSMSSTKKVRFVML
Experiment: cryo-EM structure

B1: Ubc8 C85K, insect cell-expressed and phosphorylated (the E2 chain of the Ubc8~ubiquitin mimic) (enzyme, S. cerevisiae)
chain: MSSSKRRIETDVMKLLMSDHQVDLINDSMQEFHVKFLGPKDTPYENGVWRLHVELPDNYPYKSPSIGFVNKIFHPNIDIASGSIKLDVINSTWSPLYDLINIVEWMIPGLLKEPNGSDPLNNEAATLQLRDKKLYEEKIKEYIDKYATKEKYQQMFGGDNDSDDSDSGGDLQEEDSDSDEDMDGTGVSSGDDSVDELSEDLSDIDVSDDDDYDEVANQ
modifications: heterogeneously phosphorylated C-terminal extension (phosphoserines 202 and 207 modelled); K85 isopeptide-bonded to ubiquitin
binding result: binds
